Laboratory results taken from US20210024635A1 (IMMATICS BIOTECHNOLOGIES, published 2021).

B1: Elfu (IgG1) (antibody, V domains shown)
VH: EVQLVQSGAEVKKPGESLKISCKGSGYSFTSYWISWVRQMPGKGLEWMGIIYPGTSYTRYSPSFQGQVTISADKSISTAYLQWSSLKASDTAMYYCARGYHLPYFDYWGQGTLVTVSS
VL: QSVLTQPPSVSGAPGQRVTISCTGSSSNIGAGYDVHWYQQLPGTAPKLLIYGNSNRPSGVPDRFSGSKSGTSASLAITGLQAEDEADYYCQAYASPTRVVFGGGTKLTVLG
B2: Aali (IgG1) (antibody, V domains shown)
VH: QVQLVESGGGLVKPGGSLRLSCAASGFTFSDHYISWIRQAPGKGLEWVSYISSSGSTTYYAESVKGRFTISRDNAKNSLYLQMNSLRAEDTAVYYCARTYAYRYDFDLWGQGTLVTVSS
VL: QSVLTQPPSVSGAPGQRVTISCTGSSSNIGAGYDVHWYQQLPGTAPKLLIYGNSNRPSGVPDRFSGSKSGTSASLAITGLQAEDEADYYCQTWVHSYSTPVFGGGTKLTVLG
B3: Aali (Fab) (Fab, V domains shown)
VH: QVQLVESGGGLVKPGGSLRLSCAASGFTFSDHYISWIRQAPGKGLEWVSYISSSGSTTYYAESVKGRFTISRDNAKNSLYLQMNSLRAEDTAVYYCARTYAYRYDFDLWGQGTLVTVSS
VL: QSVLTQPPSVSGAPGQRVTISCTGSSSNIGAGYDVHWYQQLPGTAPKLLIYGNSNRPSGVPDRFSGSKSGTSASLAITGLQAEDEADYYCQTWVHSYSTPVFGGGTKLTVLG
notes: Tested in monovalent Fab format; also called Aali Fab fragment
B4: Bibi (IgG1) (antibody, V domains shown)
VH: EVQLVESGGGLVKPGGSLRLSCAASGFTFSSYSMNWVRQAPGKGLEWVSSISSSSSYIYYADSVKGRFTISRDNAKNSLYLQMNSLRAEDTAVYYCARTESVWHLGFDIWGQGTLVTVSS
VL: DIQMTQSPSSVSASVGDRVTITCRASQGISSWLAWYQQKPGKAPKLLIYAASSLQSGVPSRFSGSGSGTDFTLTISSLQPEDFATYYCQQNHKYPITFGQGTKVEIKR
B5: Cyprus (IgG1) (antibody, V domains shown)
VH: QVQLVESGGGLVKPGGSLRLSCAASGFTFSDYYMSWIRQAPGKGLEWVSYISSSGSTIYYADSVKGRFTISRDNAKNSLYLQMNSLRAEDTAVYYCARDGLRYFYGFDYWGQGTLVTVSS
VL: QSVLTQPPSVSAAPGQKVTISCSGSSSNIGNNYVSWYQQLPGTAPKLLIYDNNKRPSGIPDRFSGSKSGTSATLGITGLQTEDEADYYCQAWVHYSLVHWVFGGGTKLTVLG
B6: Daniel (IgG1) (antibody, V domains shown)
VH: QVQLVQSGAEVKKPGASVKVSCKASGYTFTSYYMHWVRQAPGQGLEWMGIINPSGGSTSYAQKFQGRVTMTRDTSTSTVYMELSSLRSEDTAVYYCAREGYTPGGSYTFDIWGQGTLVTVSS
VL: QSVLTQPPSVSAAPGQKVTISCSGSSSNIGNNYVSWYQQLPGTAPKLLIYDNNKRPSGIPDRFSGSKSGTSATLGITGLQTEDEADYYCGSWDGFVSSYSVFGGGTKLTVLG
B7: Fiwi (Fab) (Fab, V domains shown)
VH: EVQLVESGGGLVKPGGSLRLSCAASGFTFSNYWISWVRQAPGKGLEWVGRIKSKTYGGTTDYAEPVKGRFTISRDDSKNTLYLQMNSLKTEDTAVYYCARGRYPELGYFDLWGQGTLVTVSS
VL: QSVLTQPPSVSAAPGQKVTISCSGSSSNIGNNYVSWYQQLPGTAPKLLIYDNNKRPSGIPDRFSGSKSGTSATLGITGLQTEDEADYYCGAWDSYLSVSFVFGGGTKLTVLG
notes: Tested in monovalent Fab format
B8: Fiwi (IgG1) (antibody, V domains shown)
VH: EVQLVESGGGLVKPGGSLRLSCAASGFTFSNYWISWVRQAPGKGLEWVGRIKSKTYGGTTDYAEPVKGRFTISRDDSKNTLYLQMNSLKTEDTAVYYCARGRYPELGYFDLWGQGTLVTVSS
VL: QSVLTQPPSVSAAPGQKVTISCSGSSSNIGNNYVSWYQQLPGTAPKLLIYDNNKRPSGIPDRFSGSKSGTSATLGITGLQTEDEADYYCGAWDSYLSVSFVFGGGTKLTVLG
B9: Daniel (Fab) (Fab, V domains shown)
VH: QVQLVQSGAEVKKPGASVKVSCKASGYTFTSYYMHWVRQAPGQGLEWMGIINPSGGSTSYAQKFQGRVTMTRDTSTSTVYMELSSLRSEDTAVYYCAREGYTPGGSYTFDIWGQGTLVTVSS
VL: QSVLTQPPSVSAAPGQKVTISCSGSSSNIGNNYVSWYQQLPGTAPKLLIYDNNKRPSGIPDRFSGSKSGTSATLGITGLQTEDEADYYCGSWDGFVSSYSVFGGGTKLTVLG
notes: as for B7
B10: Cyprus (Fab) (Fab, V domains shown)
VH: QVQLVESGGGLVKPGGSLRLSCAASGFTFSDYYMSWIRQAPGKGLEWVSYISSSGSTIYYADSVKGRFTISRDNAKNSLYLQMNSLRAEDTAVYYCARDGLRYFYGFDYWGQGTLVTVSS
VL: QSVLTQPPSVSAAPGQKVTISCSGSSSNIGNNYVSWYQQLPGTAPKLLIYDNNKRPSGIPDRFSGSKSGTSATLGITGLQTEDEADYYCQAWVHYSLVHWVFGGGTKLTVLG
notes: as for B7

Columns and labels:
[1] = target: T1, RMF/HLA complex on antigen-positive cancer cells (SET2, BV173) (human); test: flow cytometry on SET2 cells, IgG; '++' = EC50 below 10 nM, '+' = EC50 of more than 10 nM
T1 construct: whole, on cells; Naturally presented complex on SET2 (DSMZ ACC 608) and BV173 (DSMZ ACC 20) cells; also called RMF/HLA complex on cells; WT1/HLA-expressing cells
Protocol: (§1) SET2 cells (DSMZ No. ACC 608) and BV173 cells (DSMZ No. ACC 20) were used as antigen-positive cancer cells (see Dao et al.; 2013). Binding was measured by flow cytometry utilizing a PE-conjugated goat anti-human IgG secondary antibody, and EC50 values were determined.
(§2) Example 4 was repeated with the antibodies of the present disclosure, i.e. binding to RNF/HLA-positive SET2 cells (DSMZ No. ACC 608) and BV173 cells (DSMZ No. ACC 20) was tested by flow cytometry. EC50 values were determined.

[2] = target: T1, RMF/HLA complex on antigen-positive …; test: flow cytometry on BV173 cells, IgG; '++' = EC50 below 10 nM, '+' = EC50 of more than 10 nM
Protocol: as §1, §2

[3] = target: T2, WT1 RMF peptide/HLA-A0201 complex (isolated, recombinant, biotinylated) (human); test: ELISA on Neutravidin plates, IgG
[4] = target: T2, WT1 RMF peptide/HLA-A0201 complex …; test: ELISA on Neutravidin plates, IgG; '++' = EC50 below 10 nM, '+' = EC50 of more than 10 nM
[5] = target: T3, PIGQ peptide/HLA-A0201 complex (human, biotinylated (site not stated)); test: ELISA as in Example 3; biotinylated peptide/HLA complex coated at 50 nM on Neutravidin plates, IgG titrated, AP-conjugated goat anti-human IgG, RFU
T3 construct: Negative control / counter target complex; also called PIGQ/HLA; PIGQ/HLA complex

[6] = target: T2, WT1 RMF peptide/HLA-A0201 complex …; test: as above
[7] = target: T4, WT1 RMF peptide/HLA-A0201 complex (isolated, recombinant, biotinylated) (human); test: Octet (BLI), IgG, apparent (bivalent) affinity; dissociation too slow for the limits of the system
T4 construct: also called RMF/HLA; RMF/HLA complex
Protocol: The apparent affinity of the binders Aali and Refmab #13 was measured for the RMF/HLA antigen with an Octet system. […] The binding of Aali was characterized by a very slow dissociation rate, which exceeded the specification limits that were set in the system.

[8] = target: T4, WT1 RMF peptide/HLA-A0201 complex …; test: ELISA on Neutravidin plates, IgG
[9] = target: T4, WT1 RMF peptide/HLA-A0201 complex …; test: ELISA on Neutravidin plates, IgG; '++' = EC50 below 10 nM, '+' = EC50 of more than 10 nM
[10] = target: T4, WT1 RMF peptide/HLA-A0201 complex …; test: ELISA as in Example 3; biotinylated peptide/HLA complex coated at 50 nM on Neutravidin plates, IgG titrated, AP-conjugated goat anti-human IgG, RFU
[11] = target: T4, WT1 RMF peptide/HLA-A0201 complex …; test: ELISA on Neutravidin plates, Fab; '++' = EC50 below 10 nM, '+' = EC50 of more than 10 nM
[12] = target: T3, PIGQ peptide/HLA-A0201 complex; test: ELISA on Neutravidin plates, Fab; '---' = no binding
[13] = target: T4, WT1 RMF peptide/HLA-A0201 complex …; test: ELISA on Neutravidin plates, Fab; EC50 compared with the best reference Fab (not named)
Protocol: The binders were subjected to an in-depth characterization. They were directly compared to the antibodies of the prior art in an ELISA assay using Neutravidin plates as described in Example 3. For selected reference antibodies and binders of the present invention, the EC50 were determined.
Furthermore, none of the binders of the present invention show any binding to the counter targets, in particular no binding to the PIGQ/HLA complex.

[14] = target: T4, WT1 RMF peptide/HLA-A0201 complex …; test: Octet (BLI), Fab, antigen immobilized to Streptavidin
Protocol: Affinities of the Fab fragments of binders Aali and Refmab #13 for the antigen RMF/HLA were also measured with an Octet system using the antigen immobilized to Streptavidin.

| Binder | EC50 [1] [µM] | EC50 [2] [µM] | EC50 [3] [µM] | EC50 [4] [µM] | binding result [5] | EC50 (read off the curve) [6] [µM] | Kd [7] [µM] | EC50 [8] [µM] | EC50 [9] [µM] | EC50 (read off the curve) [10] [µM] | EC50 [11] [µM] | binding result [12] | fold better EC50 than the best binder of the prior art [13] [fold] | Kd [14] [µM] |
| --- | --- | --- | --- | --- | --- | --- | --- | --- | --- | --- | --- | --- | --- | --- |
| B1 | > 0.01 | > 0.01 | < 0.001 | < 0.01 | no binding | ~0.0003 | – | – | – | – | – | – | – | – |
| B2 | < 0.01 | > 0.01 | – | – | no binding | – | < 0.0005 | < 0.001 | < 0.01 | ~0.0005 | – | – | – | – |
| B3 | – | – | – | – | – | – | – | – | – | – | < 0.01 | no binding | ≥ 3.3 | 0.066 |
| B4 | > 0.01 | > 0.01 | < 0.001 | < 0.01 | no binding | ~0.0003 | – | – | – | – | – | – | – | – |
| B5 | > 0.01 | > 0.01 | – | – | no binding | – | – | < 0.001 | < 0.01 | ~0.0003 | – | – | – | – |
| B6 | < 0.01 | > 0.01 | – | – | no binding | – | – | < 0.001 | < 0.01 | ~0.0003 | – | – | – | – |
| B7 | – | – | – | – | – | – | – | – | – | – | > 0.01 | no binding | ≥ 3.3 | – |
| B8 | > 0.01 | > 0.01 | – | – | no binding | – | – | < 0.001 | < 0.01 | ~0.0003 | – | – | – | – |
| B9 | – | – | – | – | – | – | – | – | – | – | < 0.01 | no binding | ≥ 3.3 | – |
| B10 | – | – | – | – | – | – | – | – | – | – | < 0.01 | no binding | ≥ 3.3 | – |
